Results reported in PMC9170038, “Crowdsourced RNA design discovers diverse, reversible, efficient, self-contained molecular switches”.

Biological target: MS2 coat protein, dlFG mutant (Escherichia phage MS2, UniProt P03612, del68-81insG)
Assay: 4 mM Mg2+; no ligand; RNA-MaP array; 100 mM Tris-HCl pH 7.5, 80 mM KCl, 4 mM MgCl2, 0.1 mg/mL BSA, 1 mM DTT, 0.01 mg/mL yeast tRNA, 0.01% Tween-20; protein 1.5 nM to 3 uM; 37 C (Table S3)
Settings: chain copies: 2; label: tethered by stalled RNA polymerase

Row | Binder | Kd [µM]
1 | Eterna 10494 (Sensor v3, turn-off variant 2) (ssRNA) RNA: AGUACUAACACGAAAGUGUUAGUCCAAUAAGCUUGUGAAACAUGAGGAUCACCCAUGUCCUCAUAAGCUCGUCUUAU | 0.0152
2 | Eterna 7755342 (Exclusion - FMN A) (ssRNA) RNA: AAGUGUCAUUAGACACACCGAUGUAUAAACUAGGAUAUGCUGAUAAGCAGAAGGAGUGAUGUUCCUUUCAUCAUCGGAAUUAAAU | > 3
3 | Eterna 6382764 (Same State NG 3) (ssRNA) RNA: GGACGUCACAUUAACAUGAGGAUCACCCAUGUGAAAACACAUGAGGAUAUGGAUCCUAAUUGGAUCCAGAAGGCAUGGACGUCC | 0.0278
4 | Eterna 7727640 (Exclusion - Tryptophan A) (ssRNA) RNA: GGCCUGGUCGCCUAGUGAUUGUCGGUAGGACGAGGACCGGUACGGCCGCCACUCGGCUUACCCAGUGAUGUUGGGUAUCCGUGGC | > 3
5 | Eterna 5958897 (Exclusion NG 2) (ssRNA) RNA: AGCUGUGGCCGAGGAUAUCUAUCCCAAAUAACCGAAAUAUAAUCGGACAUGAGGAUCACCCAUGUAGAGAAGGCGGUCUCAGCA | 0.0284
6 | Eterna 7691982 (Same State - Arginine B) (ssRNA) RNA: UGACUGGACUGAAGGAGCGAGCGAGACAAAGUCUCGAAAAUUCAGUGAUGUUGAAAUAUAACUCAGGUAGGUCGCAGUCUAGUCU | > 3
7 | Eterna 6436150 (Inverted Small Loop Exclusion NG 3) (ssRNA) RNA: AACCGCGACCGGCCUGGCACGCCGAGAAGGGUACGUGACCUGCUUUACAUGAGGAUCACCCAUGUACAGGAUAUCGGAUAGCCG | 0.00568
8 | Eterna 7727764 (Exclusion - Tryptophan B) (ssRNA) RNA: AAUAAACAGUCGGCCGCCACUUCAAUAGACUUAUUAUUGAAUGGUGUAGUUCUUCAGUGAUGUUGAAGGACCGGGACUUUCGCGC | > 3
9 | Eterna 7693586 (Exclusion - Tryptophan B) (ssRNA) RNA: GGAUAGGACACGGCCGCCACUACCGAGGAUACUCGAAACAUUUCCUCAGAUGAGUGAUGUUCAUCUAGGACCGGGUGUCCUAUCG | > 3
10 | Eterna 7692524 (Same State - Theophylline A) (ssRNA) RNA: UGAUAAUGCAGUGAUGUUGCUAGAAACGAUACCAGUUAAGAAAAGAACCCUUGGCAGCGUAAAGUGCGCUCUAAUGAGUGUGCUU | > 3
11 | Eterna 7702594 (Exclusion - Arginine B) (ssRNA) RNA: GUUACGCAUGGAAGGAGCGCACUCCGAUUGAUCGACACAGUGAUGUUGUGGUUCGUUCGAAUGCAGGUAGGUCGCCAUGUGUAAC | > 3
12 | Eterna 7696143 (Exclusion - Theophylline B) (ssRNA) RNA: UGAUACCAGACUGAUACCAGCCAGUGAUGUUGGCUAAUCCAAGAAGGAGUCAAAGACUCCGGCCCUUGGCAGCAGUCUGGUAUCU | > 3
13 | Eterna 6093766 (Exclusion NG 2) (ssRNA) RNA: UGUCGGAGCAGAGGAUAUAUACAUGAGGAUCACCCAUGUAAAUGAAUGAGCUGGAAACAGCAAGUAUAGAAGGCUGCUCCGACA | 0.0149
14 | Eterna 7700638 (Same State - FMN B) (ssRNA) RNA: ACCUAGUACGUAGGAUAUCGAACAUCAUUUAGUGAGAUCGAGUGAUGUUCGAUCACGUCUUCAGUUCGAGAAGGACGUACUAGGA | > 3
15 | Eterna 6416899 (Inverted Same State NG 1) (ssRNA) RNA: CACAAAUGGCAGAAGGGACGGACGAUAGUGUAGUCAGGAUAUGCAAAUAGGUAUGGACAUGAGGAUCACCCAUGUCCGUCCUUU | 0.0152
16 | Eterna 6437027 (Inverted Exclusion NG 3) (ssRNA) RNA: AUACAUGAGGAUCACCCAUGUUACUGGGUCUAUAUAGAACGUAGAAGGAUGUUUAUACACAUAACAUAGGAUAUACAAUAUUGU | 0.0333
17 | Eterna 5954774 (Same State NG 2) (ssRNA) RNA: GUAGCAUACCGAGGAUAUUCAUAUAAUACAUGAGGAUCACCCAUGUUAUAUAGGCGAAAGCCUUGGGAGAAGGCGGAAUGCUAC | 0.0163
18 | Eterna 6454073 (Inverted Small Loop Exclusion NG 3) (ssRNA) RNA: CUGUGACGGUGCGCAAGUGGACGUAGAAGGGUCACAUGAGGAUCACCCAUGUGGGCCUGCUAGUGACAGGAUAUACGUUCGUGC | 0.0193
19 | Eterna 7702469 (Exclusion - Arginine B) (ssRNA) RNA: GUUACGCAUGGAAGGAGCGCGAAAAUUUAUAGUGAGUGAUGUUCACAAAUAAGAAUAAUAACGCAGGUAGGUCGCCAUGUGUAAC | > 3
20 | Eterna 7646225 (Same State - Tryptophan A) (ssRNA) RNA: AAUAACAUGAGGAUCACCCAUGUAAGUAAACGAGGACCGGUACGGCCGCCACUCGAAUAAAUAAAGUACCGGUAAGAUCCAUAGA | 0.0213
21 | Eterna 6084833 (Exclusion 5) (ssRNA) RNA: UCAUGCUAAGGAUAUGACGUCGGCUACAUGAGGAUCACCCAUGUGGGUUCGUUAUGGCCAUUAGAAGGUAGCGAUU | 0.0196

Row | Binder | Kd [µM]
22 | Eterna 7626312 (Exclusion - Theophylline A) (ssRNA) RNA: AGAUGCCACUGUGGAUAGCACGAUGCCGAUACCAGCUAGGAAACUAGCCCUUGGCAGCGGUACAUGAGGAUCACCCAUGUAUCCU | 0.0132
23 | Eterna 7710066 (Exclusion - Tryptophan A) (ssRNA) RNA: AGCUGGGAUCCUCAGCGUCAAAGACGCAGUCGAGGACCGGUACGGCCGCCACUCGACACGAGGAUCACCCGUGUCAUUCCCAGCA | 0.379
24 | Eterna 7694710 (Exclusion - FMN B) (ssRNA) RNA: GGAUAGGACAGAGGAUAUGGACAGUCUACAAAGUAGGCUGAAAAUCCUUGAAUGGAAGUGAUGUUUCUAGAAGGCUGUCCUAUCG | > 3
25 | Eterna 6387857 (Small Loop Same State NG 3) (ssRNA) RNA: AAUCUUUUUAUGGGAUUACAAUAUGAGGAUAUCAUUCAUUUAUACAUGAGGAUCACCCAUGUUACUGAGAAGGCAUAUAUAAUA | 0.0284
26 | Eterna 7730299 (Same State - Arginine B) (ssRNA) RNA: UGUAUGGACUGAAGGAGCGGGUAAAUAACCUGAGGAUCACCCAGGUAAAAGGCGAAAGCCACCCAGGUAGGUCGCAGUCCAUACU | 0.0109
27 | Eterna 6430181 (Small Loop Exclusion NG 3) (ssRNA) RNA: UAUAGCCCUAGUUCGAGUGUCUAGGAGGAUAUACAGAGGCAGCCAAAGACAUGAGGAUCACCCAUGUAGAAGGCCUAGACGGUA | 0.0136
28 | Eterna 6071251 (Exclusion 3) (ssRNA) RNA: GCACUGACAGGAUAUACAUGAGGAUCACCCAUGUGACCCUUACAGUACUCGCGUACUGGUAGAAGGGUCUGUGC | 0.0354
29 | Eterna 1615 (Same State - Theophylline A) (ssRNA) RNA: UGCACCAGUGAUGUUGGUCGGCACCGAGAUACCAGCUGAUCUCUUAGCCCUUGGCAGCUCUUUAUUCGCGUUAUCAGUUUCUUCG | > 3
30 | Eterna 7761084 (Exclusion - FMN A) (ssRNA) RNA: CGAGUGAUGUUCGUUCGUAUAUUUGGGUGACAGGAUAUGCGGAAACGCAGAAGGGUCGCCUUCGGGUUACCCGAAUUGGCGUUUU | > 3
31 | Eterna 7758370 (Same State - Tryptophan B) (ssRNA) RNA: UGUCAUUGGUCGGCCGCCACUUCAUAAAGAGUGAUGUUCUUAAAGACGGAUCGAAAGAUCUGUCGAAGGACCGGGACCGAUGACU | > 3
32 | Eterna 7730249 (Same State - Arginine B) (ssRNA) RNA: UGUAUGGACUGAAGGAGCGCCUCAAAAUAGCAUGAGGAUCACCCAUGCAAGGCGAAAGCCGGGCAGGUAGGUCGCAGUCCAUACU | 0.0126
33 | Eterna 7721239 (Exclusion - Theophylline B) (ssRNA) RNA: GGAAUAACCUGGGAUACCAGUCGGAGGACUAGGGAUCGGAGUGAUGUUCUGGGAUGUUUCGGCCCUUGGCAGCUCUGGUUUUCCG | > 3
34 | Eterna 7751925 (Exclusion - Tryptophan B) (ssRNA) RNA: GGUAGCAUGGCGGCCGCCACUAAGAGAGUGAUGUUCUCUUAGUUUUUUGAUGUGUUAUCAAUUCUUAGGACCGGGCCAUGCUACC | > 3
35 | Eterna 7685149 (Same State - Theophylline B) (ssRNA) RNA: AAGUGUUCUAGUGAUACCAGACAAUUUUAUUUUUUCUUUUUUGCUAAGUGAUGUUUAGCAGUCCCUUGGCAGCACUAUUUCACUA | > 3
36 | Eterna 7740495 (Exclusion - Theophylline A) (ssRNA) RNA: UCCUGCAAUCGUCCACGAAAGUGGAUCGAUACCAGAGUCGAAAGACUCCCUUGGCAGCGAGUGAUGUUCGAAGCAGGUAAAUAAA | > 3
37 | Eterna 7675404 (Same State - Tryptophan A) (ssRNA) RNA: UGGCGAGUGAUGUUCGUUGUUGUAGUGUGUCGAGGACCGGUACGGCCGCCACUCGAGUUGGUUGUUGUUGUUGCUGUUGUUGCUG | > 3
38 | Eterna 7721560 (Exclusion - FMN A) (ssRNA) RNA: CGAGUGAUGUUCGUUUUAAAAUUUUUUUGACAGGAUAUGCGGAAACGCAGAAGGGUCACCUUUGAGUUAAAAGAAAUUAAAUUUU | > 3
39 | Eterna 7687669 (Same State - Tryptophan B) (ssRNA) RNA: UUUAUUAAGACGGCCGCCACUGAUUCAUAGUGAUGUUAUGAUAUAAUCUUAGUGAUAUUUAUAAACAGGACCGGGUCAAUUAUUA | > 3
40 | Eterna 7692279 (Exclusion - Arginine B) (ssRNA) RNA: AUUUUUUACAGAAGGAGCGUGUUUUAAUAAUCAUGGUGCUUAGCGAGUGAUGUUCGCUUUACACAGGUAGGUCGCUGUUUAUUUA | > 3
41 | Eterna 7716457 (Exclusion - Theophylline B) (ssRNA) RNA: CGUUUAUAGCAGGAUACCAGUACCCAUUAUGUACGUUUAUAGUAGAGUGAUGUUCUAAAGUACCCUUGGCAGCUUCCCGUGACCC | > 3
